Measurements from the Human Domainome abundance scans (Beltran et al. 2025).

B1: Histone-lysine N-methyltransferase 2A, residues 1148 to 1194; numbered along this chain, Q03164 (parent)
chain: KGRRSRRCGQCPGCQVPEDCGVCTNCLDKPKFGGRNIKKQCCKMRKC

Variants of: B1
Assay: abundance fitness (aPCA) (normalised: wild type 0, dead -1); higher = more abundant; growth selection in yeast, the domain comes from the species named
Conditions: Homo sapiens

Abundance fitness, by site and new letter:
V16: R 0.196; A -0.278; H -0.3; N 0.146; G -0.705; Y -0.178; P -0.414; I -0.066; M 0.159; S -0.168; D -0.783; K 0.103; T 0.173; Q 0.223; C -0.468; E -0.522; W -0.285; L 0.205
R7: P 0.294; W -0.204; S 0.019; L -0.092; K -0.103; V 0.075; Y -0.214; N -0.041; Q -0.188; T -0.153
C8: W -0.863; L -0.648; M -0.496; S -0.626; V -0.691; A -0.786; D -0.442; Y -0.944; F -0.704; T -0.7; Q -0.568; E -0.506; R -0.809; I -0.585; G -0.457; P -0.613; K -0.583
G9: F -0.469; P -0.738; I -0.452; L -0.562; T -0.653; Y -0.42; D -0.773; R -0.55; Q -0.299; H -0.39; W -0.553; E -0.866; A -0.519; M -0.256; V -0.726; C -0.145
P12: M -0.081; K -0.75; C -0.758; W -0.723; T -0.5; N -0.465; I -0.31; S -0.676; E -0.439; Y -0.063; Q 0.016; R -0.398; L -0.106; V -0.712; F -0.63; G -0.872; H -0.579
C14: V -0.7; P -0.765; G -0.559; Y -0.554; L -0.916; N -0.288; Q -0.183; I -0.663; S -0.49; R -0.784; F -0.913; W -0.727; M -0.713; A -0.738; T -0.728; D -0.779
Q10: W -0.381; D -0.589; N -0.436; H -0.189; P -0.48; Y -0.69; M -0.246; A 0.031; T -0.23; E -0.183; L -0.322; V -0.296; S -0.069; C -0.459; G -0.235; F -0.284; R -0.234; I -0.02
T24: S -0.256; V -0.479; P -0.091; N -0.521; K -0.297; M -0.149; F -0.412; C -0.441; Y -0.238; R -0.611; Q -0.067; L -0.477; A -0.143; G -0.207; W -0.392; E 0.038; I -0.345; H -0.069
N25: K -0.633; S 0.024; H -0.374; L -0.536; T -0.325; V -0.02; M -0.084; Y -0.148; Q -0.481; F -0.377; W -0.107; G -0.342; R -0.599; I 0.121; A -0.078; D -0.233
C20: F -1.03; I -0.895; D -0.782; H -0.97; R -0.654; K -0.594; E -0.736; M -0.925; Y -0.994; A -0.961; S -0.832; N -0.898; T -0.753; Q -0.866; P -0.947; W -0.95
D19: P -0.935; G -0.96; A -0.797; M -0.339; Q -1.05
